Here are results for five molecules from patent US20100040616A1 (published 2010).

Test [1] deals with T1, recombinant human CD127 extracellular domain (CD127 ECD) (human) (UniProt P16871).
T1 sequence: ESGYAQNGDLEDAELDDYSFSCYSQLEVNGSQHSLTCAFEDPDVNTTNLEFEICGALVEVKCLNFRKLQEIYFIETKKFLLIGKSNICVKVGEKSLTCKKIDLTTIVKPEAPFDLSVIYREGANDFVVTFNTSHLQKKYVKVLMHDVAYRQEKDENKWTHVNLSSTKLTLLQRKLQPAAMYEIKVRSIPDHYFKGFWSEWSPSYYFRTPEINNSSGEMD
The experiment in a line: SPR (Biacore T100, 25 °C), antibody captured on rabbit anti-mouse IgG, CD127 ECD as analyte.

Test [2] has as its target T1, recombinant human CD127 extracellular domain (CD127 ECD) (human). Description: blocking of IL-7/IL-7Rα binding; competitor IL-7; method not given.
The target is the same in test [3]. Description: ELISA: recombinant human CD127 ECD coated at 5 ug/ml, 9B7 hybridoma material titrated, HRP goat anti-mouse IgG detection.
Test [4] shares this target. The experiment in a line: SPR (Biacore T100), CD127 ECD amine-coupled on CM5, antibody (supernatant material) as analyte.
Test [5] concerns the target T2, human CD127 expressed on cells (CD127-transfected CHO cells; PBMC and CD4+ T cells in functional assays) (human, UniProt P16871 21-459).
T2 construct: The construct transfected into CHO is not described further; also called CHO-CD127; IL-7Rα expressed on CHO
T2 chain: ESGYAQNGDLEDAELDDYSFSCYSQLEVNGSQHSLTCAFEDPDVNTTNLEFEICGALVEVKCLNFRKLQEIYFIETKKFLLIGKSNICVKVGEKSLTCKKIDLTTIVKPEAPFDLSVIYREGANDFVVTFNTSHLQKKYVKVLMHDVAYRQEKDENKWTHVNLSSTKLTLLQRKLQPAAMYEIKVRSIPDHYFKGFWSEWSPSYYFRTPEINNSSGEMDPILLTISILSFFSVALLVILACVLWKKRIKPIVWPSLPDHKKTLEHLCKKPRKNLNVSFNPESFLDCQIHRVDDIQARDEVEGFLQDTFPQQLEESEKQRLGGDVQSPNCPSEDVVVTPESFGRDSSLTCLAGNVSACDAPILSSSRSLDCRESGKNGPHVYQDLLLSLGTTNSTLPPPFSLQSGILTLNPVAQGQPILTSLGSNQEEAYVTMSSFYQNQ
Description: Flow cytometry cross-competition on CHO-CD127 cells: unlabelled antibody titrated against fluorescence-labelled BD anti-CD127 antibody (#552853). The procedure:
CHO-CD127 cells were prepared and washed by cold DPBS for 3 times. […] The antibody mixtures were then incubated with the CHO-CD127 cells for 30 min at 4° C. […] (FIG. 15).

Test [6] concerns the target T1, recombinant human CD127 extracellular domain (CD127 ECD) (human). Description: affinity for the IL-7Rα ECD (profile summary; SPR).

Where a chain is given by its changes, count along the chain named.

B1: mAb 1A11 (murine anti-human CD127 monoclonal antibody) (antibody, mouse IgG1, V domains shown)
VH: EVQLQQSGPELLKPGASMKISCKASGYSFTGYTMNWVKQSHGKNLEWIGLINPYNGVTSYNQKFKGKATLTVAKSSSTAYMELLSLTSEDSAVYYCARGDGNYWYFDVWGAGTTVTVSS
VL: EIVLTQSPAITAASLGQKVTITCSASSSVTYMHWYQQKSGTSPKPWIYEISKLASGVPVRFSGSGSGTSYSLTISSMEAEDAAIYYCQEWNYPYTFGGGTKLEIK
For the molecule B1, in test [1], the Kd came to 3.44 nM and the koff was found to be 0.000251 s⁻¹. Also, in test [2], the IC50 was determined as 1.79 µg/mL.

B2: mAb GR34 (reverse engineered clone of R34.34) (antibody, mouse IgG1, V domains shown)
VH: B1 VH with L12V, N55S, V57I, K63N, A73D, S85N
VL: B1 VL with V3I, T30S, V59A, E89Y
On to B2, for which, in test [1], the Kd amounted to 15.3 nM and the koff was determined as 0.000875 s⁻¹. Moreover, the IC50 in test [2] was 2.29 µg/mL.

B3: mAb 9B7 (murine anti-human CD127 monoclonal antibody) (antibody, IgG1, V domains shown)
VH: QVQLQESGPGLVAPSQSLSITCTVSGFSLSRYNVHWVRQPPGKGLEWLGMIWDGGSTDYNSALKSRLSITKDNSKSQVFLKMNSLQTDDTAMYYCARNRYESGMDYWGQGTTVTVSS
VL: DIVMTQTPSSLTVTAGEKVTMSCKSSQSLLNSGNRKNYLTWYQQKPGQSPKLLIYWASTRESGVPDRFTGSGSGTDFTLIISSVQAEDLAVYYCQNDYTYPFTFGSGTKLEIKR
As for B3, the EC50 (read off the curve) in test [3] worked out at 0.6 µg/mL. In addition, the Kd in test [4] worked out at 0.556 nM.

B4: mAb 6C5 (murine anti-human CD127 monoclonal antibody) (antibody, mouse IgG1, V domains shown)
VH: EVKLLESGGGLVQPGGSLKLSCAASGFAFSAYWMSWVRQAPGKGLEWIGEINPDSSTINCTPSLKDKFIISRDNAKNTLSLQMNKVRSEDTALYYCARRLRPFWYFDVWGAGTTVTVSS
VL: DVLMTQTPLSLPVSLGDQASISCRSSQSIVQSNGNTYLEWYLQKPGQSPKLLIYKVSNRFSGVPDRFSGSGSGTDFTLKISRVEAEDLGVYYCFQGSHVPRTFGGGTKLEIK
notes: also called Antibody 6C5
On to B4, for which, in test [1], the Kd is 24.4 nM, the koff was 0.000436 s⁻¹ and the kon stood at 17900 M⁻¹ s⁻¹. Further, the “IC50 (read off the curve)” value in test [5] was about 70 µg/mL.

B5: mAb 6A3 (murine anti-human CD127 monoclonal antibody) (antibody, mouse IgG1, V domains shown)
VH: DVQLQESGPGLVKPSQSLSLTCTVTGYSITTDYAWNWIRQFPGNKLEWMGYIFYSGSTTYTPSLKSRISITRDTSKNQFFLQLNSVTTEDTATYYCARGGYDVNYFDYWGQGTTLTVSS
VL: DIQMTQSPASQSASLGESVTITCLASQTIGAWLAWYQQKPGKSPQLLIYAATRLADGVPSRFSGSGSGTKFSFKISSLQAEDFVSYYCQQFFSTPWTFGGGTKLEIK
On to B5, for which, in test [1], the Kd is 7.74 nM, the koff is 0.000146 s⁻¹ and the kon is 18900 M⁻¹ s⁻¹. In test [2], the IC50 was determined as 1.92 µg/mL. In test [6], the Kd is 7.99 nM and the koff was found to be 0.000334 s⁻¹.
